Assay results as given in patent US20200123264A1 (Regeneron, published 2020).

T1: recombinant human LEPR extracellular domain expressed with a C-terminal mouse IgG2a Fc tag (human)
T1 construct: Dimeric construct; also called hLEPR.mFc; hLEPR-mFc
T1 chain: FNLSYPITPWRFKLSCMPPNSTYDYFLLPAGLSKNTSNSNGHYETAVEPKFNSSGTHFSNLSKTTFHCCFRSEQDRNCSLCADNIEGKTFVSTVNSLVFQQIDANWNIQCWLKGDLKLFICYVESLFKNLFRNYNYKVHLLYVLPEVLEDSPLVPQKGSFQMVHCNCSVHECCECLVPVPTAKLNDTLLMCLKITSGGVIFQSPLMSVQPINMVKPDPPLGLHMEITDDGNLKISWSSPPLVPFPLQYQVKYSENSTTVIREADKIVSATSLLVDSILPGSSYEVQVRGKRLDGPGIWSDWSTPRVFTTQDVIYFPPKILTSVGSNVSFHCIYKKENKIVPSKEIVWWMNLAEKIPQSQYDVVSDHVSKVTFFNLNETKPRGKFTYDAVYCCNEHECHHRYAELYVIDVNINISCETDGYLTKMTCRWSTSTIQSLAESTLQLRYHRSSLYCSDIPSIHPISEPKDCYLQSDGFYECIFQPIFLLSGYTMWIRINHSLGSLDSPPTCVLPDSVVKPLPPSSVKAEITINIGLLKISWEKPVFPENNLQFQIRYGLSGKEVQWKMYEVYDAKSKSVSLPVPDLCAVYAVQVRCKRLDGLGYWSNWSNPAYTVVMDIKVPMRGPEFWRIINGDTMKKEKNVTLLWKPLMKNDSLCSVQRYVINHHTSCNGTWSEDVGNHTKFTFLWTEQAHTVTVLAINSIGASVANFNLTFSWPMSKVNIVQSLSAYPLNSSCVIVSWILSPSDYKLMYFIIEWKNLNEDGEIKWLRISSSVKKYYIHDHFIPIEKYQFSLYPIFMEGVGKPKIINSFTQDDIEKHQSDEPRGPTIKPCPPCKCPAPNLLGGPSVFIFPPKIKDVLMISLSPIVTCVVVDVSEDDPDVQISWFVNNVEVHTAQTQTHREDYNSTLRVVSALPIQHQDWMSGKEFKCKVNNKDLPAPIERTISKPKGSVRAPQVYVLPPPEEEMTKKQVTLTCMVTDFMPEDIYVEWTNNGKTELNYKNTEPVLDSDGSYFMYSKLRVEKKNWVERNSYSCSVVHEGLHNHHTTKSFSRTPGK


Legend:
Assay in all cases: SPR, mAb captured, 25 C
[1] = target: T2, recombinant human LEPR extracellular domain expressed with a C-terminal myc-myc-hexahistidine tag (human, UniProt P48357 22-839)
T2 construct: Monomeric construct; also called hLEPR.MMH; hLEPR-MMH
Description: (§1) Equilibrium dissociation constants (KD values) for antigen binding to purified anti-LEPR monoclonal antibodies of the invention were determined using a real-time surface plasmon resonance biosensor using a Biacore 4000 instrument. All binding studies were performed in running buffer containing 10 mM HEPES, 150 mM NaCl, 3 mM EDTA, and 0.05% v/v Surfactant Tween-20, pH 7.4 (HBS-ET running buffer) at 25° C. and 37° C. The Biacore sensor surface was first derivatized by amine coupling with a monoclonal mouse anti-human Fc antibody (GE, # BR-1008-39) to the capture anti-LEPR monoclonal antibodies. The LEPR reagents tested for binding to the anti-LEPR monoclonal antibodies included recombinant human LEPR extracellular domain expressed with a C-terminal myc-myc-hexahistidine tag (hLEPR.MMH; SEQ ID NO:90), recombinant cynomolgus monkey LEPR extracellular domain expressed with a C-terminal myc-myc-hexahistidine tag (mfLEPR.MMH; SEQ ID NO:93), recombinant mouse LEPR extracellular domain expressed with a C-terminal myc-myc-hexahistidine tag (mLEPR.MMH; SEQ ID NO:94), recombinant rat LEPR extracellular domain expressed with a C-terminal myc-myc-hexahistidine tag (rLEPR.MMH; SEQ ID NO:95), and recombinant human LEPR extracellular domain expressed with a C-terminal mouse IgG2a Fc tag (hLEPR.mFc; SEQ ID NO:91). LEPR constructs that include MMH tags are monomeric LEPR constructs, and LEPR constructs including an mFc tag are dimeric LEPR constructs. […] The dissociation of monoclonal antibody bound LEPR reagent was monitored for 10 minutes in HBS-ET running buffer. Kinetic association (10 and dissociation (10 rate constants were determined by fitting the real-time binding sensorgrams to a 1:1 binding model with mass transport limitation using Scrubber 2.0c curve-fitting software. Binding dissociation equilibrium constants (KD) and dissociative half-lives (t½) were calculated from the kinetic rate constants as: […]

[2] = target: T3, recombinant cynomolgus monkey LEPR extracellular domain expressed with a C-terminal myc-myc-hexahistidine tag (cynomolgus monkey, UniProt Q9MYL0 22-837 (rhesus entry))
T3 construct: Monomeric construct; also called mfLEPR.MMH; mfLEPR-MMH
Description: as §1

[3] = target: T1, recombinant human LEPR extracellular …
Description: as §1

[4] = target: T4, recombinant rat LEPR extracellular domain expressed with a C-terminal myc-myc-hexahistidine tag (rat, UniProt Q62959 22-839)
T4 construct: Monomeric construct; also called rLEPR.MMH; rLEPR-MMH
Description: as §1

T4 sequence (Q62959 other isoform, or with tags, fused parts or gaps): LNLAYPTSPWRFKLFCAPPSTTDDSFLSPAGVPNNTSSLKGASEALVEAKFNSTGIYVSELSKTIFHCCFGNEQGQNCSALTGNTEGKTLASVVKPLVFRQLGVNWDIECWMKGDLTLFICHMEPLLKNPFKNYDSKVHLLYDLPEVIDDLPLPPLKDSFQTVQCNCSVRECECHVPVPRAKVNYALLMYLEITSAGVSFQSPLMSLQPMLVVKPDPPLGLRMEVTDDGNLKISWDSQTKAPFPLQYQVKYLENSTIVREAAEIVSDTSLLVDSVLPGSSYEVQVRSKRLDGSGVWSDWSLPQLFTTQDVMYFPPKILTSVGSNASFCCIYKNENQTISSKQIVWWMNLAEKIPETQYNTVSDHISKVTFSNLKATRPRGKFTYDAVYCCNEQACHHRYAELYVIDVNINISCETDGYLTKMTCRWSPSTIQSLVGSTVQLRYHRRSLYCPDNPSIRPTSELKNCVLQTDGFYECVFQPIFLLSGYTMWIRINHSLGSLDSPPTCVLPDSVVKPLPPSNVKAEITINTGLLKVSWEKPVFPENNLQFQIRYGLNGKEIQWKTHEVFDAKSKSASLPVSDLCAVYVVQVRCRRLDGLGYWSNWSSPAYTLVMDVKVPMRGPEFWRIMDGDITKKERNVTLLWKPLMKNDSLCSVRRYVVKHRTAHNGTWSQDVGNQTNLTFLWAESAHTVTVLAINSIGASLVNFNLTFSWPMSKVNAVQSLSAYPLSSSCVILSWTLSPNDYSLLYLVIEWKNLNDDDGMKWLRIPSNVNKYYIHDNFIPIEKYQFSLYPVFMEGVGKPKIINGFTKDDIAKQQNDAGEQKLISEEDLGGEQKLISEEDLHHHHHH

| Binder | 100 nM hLEPR-MMH Bound (RU) [1] [RU] | Kd [1] [nM] | koff [1] [s⁻¹] | kon [1] [M⁻¹ s⁻¹] | t½ [1] [min] | 100 nM mfLEPR-MMH Bound (RU) [2] [RU] | Kd [2] [nM] | koff [2] [s⁻¹] | kon [2] [M⁻¹ s⁻¹] | t½ [2] [min] | 100 nM hLEPR-mFc Bound (RU) [3] [RU] | Kd [3] [nM] | koff [3] [s⁻¹] | kon [3] [M⁻¹ s⁻¹] | t½ [3] [min] | 100 nM rLEPR-MMH Bound (RU) [4] [RU] | Kd [4] [nM] | koff [4] [s⁻¹] | kon [4] [M⁻¹ s⁻¹] | t½ [4] [min] |
| --- | --- | --- | --- | --- | --- | --- | --- | --- | --- | --- | --- | --- | --- | --- | --- | --- | --- | --- | --- | --- |
| H4H18440P2 (antibody, human IgG4, V domains shown, H4H prefix: human IgG4 Fc) VH: QVQLVESGGGMVKPGGSLRLSCAASGFTFSDYYMSWIRQAPGKGLEWISHISITGSTIYYADSVKGRFTISRDNAKNSLYLEMNRLRDEDTAVYYCTRDEPDIVLVRYGMDVWGQGTTVTVSS VL: not shown | 71 | 11.8 | 0.000497 | 42300 | 23 | 67 | 54.1 | 0.00268 | 49500 | 4.3 | 140 | 0.443 | 6.82e-05 | 154000 | 169 | -2 | – | – | – | – |
| H4H18437P2 (antibody, human IgG4, V domains shown, H4H prefix: human IgG4 Fc) VH: QVQLVESGGGVVQPGRSLRLSCAASGFTFSSYGIHWVRQAPGKGLEWVAVISYDGNNKYYADSVKGRFTISRDNSKNTLYLQMNSLRAEDTAVYYCAKDLFLEWLFHGMGVWGQGTTVTVSS VL: not shown | 56 | 65.3 | 0.00375 | 57400 | 3.1 | 70 | 58.9 | 0.00405 | 68700 | 2.9 | 70 | 5.27 | 0.000536 | 102000 | 22 | 13 | 328 | 0.0138 | 42100 | 0.8 |
| H4H18462P2 (antibody, human IgG4, V domains shown, H4H prefix: human IgG4 Fc) VH: EVQLVESGGDLVQPGRSLRLSCAASGFTFSSFAMSWVRQAPGRGLEWVSSLSDSGDNTYYADSVKGRFTISRDNSKNTLYLQMNNLRAEDTAVYYCAKDLFSGWLFHGFDVWGQGTMVTVSS VL: not shown | 34 | 113 | 0.00765 | 67900 | 1.5 | 42 | 179 | 0.0133 | 74200 | 0.9 | 68 | 3.26 | 0.000296 | 90800 | 39 | 5 | 336 | 0.0108 | 32100 | 1.1 |
| H4H18464P2 (antibody, human IgG4, V domains shown, H4H prefix: human IgG4 Fc) VH: QVQLVQSGPEVKKPGASVKVSCKGSGYTFSWYGISWIRQAPGHGLEWMGWISASSGNTRFAQKVQGRLTMTTDTSTSTAYMELRSLRSDDTAVYYCARTGTRPFDYWGQGTLVTVSS VL: not shown | 60 | 9.09 | 0.00113 | 124000 | 10 | 15 | 60.4 | 0.00231 | 38200 | 5 | 84 | 0.891 | 0.000188 | 211000 | 61 | -1 | – | – | – | – |
